B4: K560-GFP with C-terminal Strep-tag, purified (domain or fragment, human, UniProt P33176 1-560, looked up)
chain: MADLAECNIKVMCRFRPLNESEVNRGDKYIAKFQGEDTVVIASKPYAFDRVFQSSTSQEQVYNDCAKKIVKDVLEGYNGTIFAYGQTSSGKTHTMEGKLHDPEGMGIIPRIVQDIFNYIYSMDENLEFHIKVSYFEIYLDKIRDLLDVSKTNLSVHEDKNRVPYVKGCTERFVCSPDEVMDTIDEGKSNRHVAVTNMNEHSSRSHSIFLINVKQENTQTEQKLSGKLYLVDLAGSEKVSKTGAEGAVLDEAKNINKSLSALGNVISALAEGSTYVPYRDSKMTRILQDSLGGNCRTTIVICCSPSSYNESETKSTLLFGQRAKTIKNTVCVNVELTAEQWKKKYEKEKEKNKILRNTIQWLENELNRWRNGETVPIDEQFDKEKANLEAFTVDKDITLTNDKPATAIGVIGNFTDAERRKCEEEIAKLYKQLDDKDEEINQQSQLVEKLKTQMLDQEELLASTRRDQDNMQAELNRLQAENDASKEEVKEVLQALEELAVNYDQKSQEVEDKTKEYELLSDELNQKSATLASIDAELQKLKEMTNHQKKRAAEMMASLLK
notes: kinesin-1 heavy chain KIF5B, human, residues 1-560; pTT5 vector; also called KIF5B-560; source: HEK293T, transfected, purified (Strep(II)-streptactin, high-salt wash); not shown: GFP, C-terminal, kept

For series [1], the target named is B4. As to the kind of experiment: cell-based or functional assay.
The target in series [2] is T1, full-length KIF5B-GFP with C-terminal Strep-tag (human, UniProt P33176 1-963).
T1 sequence (looked up): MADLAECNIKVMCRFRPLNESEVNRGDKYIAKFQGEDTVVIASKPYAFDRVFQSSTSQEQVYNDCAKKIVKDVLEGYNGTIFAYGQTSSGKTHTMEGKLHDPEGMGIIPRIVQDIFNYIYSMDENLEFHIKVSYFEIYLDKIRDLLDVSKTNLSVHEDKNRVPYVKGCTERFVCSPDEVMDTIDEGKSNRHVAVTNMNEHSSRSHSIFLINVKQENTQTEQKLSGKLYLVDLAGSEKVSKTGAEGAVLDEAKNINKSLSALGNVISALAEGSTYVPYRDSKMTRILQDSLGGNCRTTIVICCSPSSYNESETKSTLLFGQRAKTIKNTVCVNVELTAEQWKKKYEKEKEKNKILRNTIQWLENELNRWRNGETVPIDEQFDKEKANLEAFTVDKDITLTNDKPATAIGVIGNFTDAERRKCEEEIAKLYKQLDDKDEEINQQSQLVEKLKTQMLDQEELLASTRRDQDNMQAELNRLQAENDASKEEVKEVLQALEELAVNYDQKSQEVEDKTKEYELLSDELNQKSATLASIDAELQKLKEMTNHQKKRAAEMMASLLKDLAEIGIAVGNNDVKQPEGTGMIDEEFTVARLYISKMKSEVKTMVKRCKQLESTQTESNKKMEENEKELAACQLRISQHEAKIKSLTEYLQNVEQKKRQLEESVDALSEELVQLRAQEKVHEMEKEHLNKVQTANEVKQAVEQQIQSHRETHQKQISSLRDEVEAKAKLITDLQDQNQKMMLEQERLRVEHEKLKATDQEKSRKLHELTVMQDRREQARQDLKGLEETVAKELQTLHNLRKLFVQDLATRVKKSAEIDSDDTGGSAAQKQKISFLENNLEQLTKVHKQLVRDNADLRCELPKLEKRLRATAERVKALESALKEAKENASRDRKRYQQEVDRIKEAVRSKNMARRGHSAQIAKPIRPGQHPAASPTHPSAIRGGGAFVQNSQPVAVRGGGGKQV
As to the kind of experiment: cell-based or functional assay.

Series [3] concerns the molecule itself. Description: SEC-MALS; Superdex 200 10/300, 10 mM Tris HCl pH 7.5, 150 mM NaCl, 20°C; 30 µl of protein at 5 mg/ml injected.
Series [4] deals with the molecule itself. Description: single-molecule fluorescence intensity analysis (TIRF); intensity of GFP-tagged kinesins moving on MTs compared with monomeric GFP, with or without MAP7 proteins; 30°C.

Some results are limits rather than exact numbers.

B1: Alexa Fluor 647–labeled SNAP-tag-MAP7D3, full length (natural protein, UniProt Q8IWC1 1-876, looked up)
chain: MMADGAAAGAGGSPSLRELRARMVAAANEIAKERRKQDVVNRVATHSSNIRSTFKPVIDGSMLKNDIKQRLARERREEKRRQQDANKETQLLEKERKTKLQYEKQMEERQRKLKERKEKEEQRRIAAEEKRHQKDEAQKEKFTAILYRTLERRRLADDYQQKRWSWGGSAMANSESKTANKRSASTEKLEQGTSALIRQMPLSSAGLQNSVAKRKTDKERSSSLNRRDSNLHSSTDKEQAERKPRVTGVTNYVMQYVTVPLRKCTSDELRAVMFPMSTMKIPPQTKVEESPLEKVETPPKASVDAPPQVNVEVFCNTSMEASPKAGVGMAPEVSTDSFPVVSVDVSPVVSTYDSEMSMDASPELSIEALPKVDLETVPKVSIVASPEASLEAPPEVSLEALPEVSVEAAPEGSLEAPPKGSAEVAPKESVKGSPKESMEASPEAMVKASPKTSLEASMEASPKAKARDAPKKSEMDKQALIPIAKKRLSSYTECYKWSSSPENACGLPSPISTNRQIQKNCPPSPLPLISKQSPQTSFPYKIMPIQHTLSVQSASSTVKKKKETVSKTTNRCEALSQRHMIYEESGNKSTAGIMNAEAATKILTELRRLAREQREKEEEERQREEMQQRVIKKSKDMAKEAVGGQAEDHLKLKDGQQQNETKKKKGWLDQEDQEAPLQKGDAKIKAQEEADKRKKEHERIMLQNLQERLERKKRIEEIMKRTRKTDVNASKVTETSSHDIYEEAEADNEESDKDSLNEMFPSAILNGTGSPTKFKMPFNNAKKMTHKLVFLEDGTSQVRKEPKTYFNGDLKNFRQKSMKDTSIQEVVSRPSSKRMTSHTTKTRKADETNTTSRSSAQTKSEGFHDILPKSSDTFRQ
modifications: Alexa Fluor 647 on the SNAP-tag
B1: in series [1], the “landing frequency of K560-GFP on MAP-decorated dynamic MTs in vitro, increasing MAP concentrations, against K560 alone” value is at most 23.6 fold and the “processivity (run length) of K560-GFP on dynamic MTs in vitro” value came out at 2 fold. Further, in series [2], the “events of full-length KIF5B-GFP on dynamic MTs in vitro (short binding events and landing followed by processive movement), with MAP against kinesin alone” value was at least 60 fold; the “run length of full-length KIF5B-GFP on dynamic MTs in vitro, with MAP against kinesin alone” value is about 1.6 fold.

B2: KIF5B fragment (minimal binding construct for SEC-MALS and ITC) (domain or fragment)
chain: CEEEIAKLYKQLDDKDEEINQQSQLVEKLKTQMLDQEELLASTRRDQDNMQAELNRLQAENDASKEEVKEVLQALEELAVNYDQKSQEVEDKTKEYELLSDEL
As for B2, the stoichiometry N (usually the number of molecules, sites or subunits per partner or assembly) in series [3] is 2.

B3: K370-GFP with C-terminal Strep-tag, purified (domain or fragment)
chain: not shown
notes: kinesin-1 heavy chain KIF5B, human, residues 1-370; pEGFP-N1 vector; also called KIF5B 1–370; source: HEK293T, transfected, purified (Strep(II)-streptactin); not shown: GFP, C-terminal, kept
Consider B3, for which, in series [4], the “stoichiometry N” value was 2.
In the case of B4, the “stoichiometry N” value in series [4] amounted to 2.
